Consider 1 molecule from US20090291088A1 (Biogen, published 2009).

As usually defined, the EC50 is the concentration needed to bring the measured effect to its halfway point. Low values mean higher potency in that assay, high ones lower potency in that assay. Broadly, the koff is the first-order rate constant of dissociation. Read a low koff as a long-lived complex. The kon is the rate constant with which the complex forms. Read a low kon as slower complex formation.

For assay [1], the target named is T1, human INSR(28-956)-His10 (human, UniProt P06213 28-956).
T1 construct: range 28-956; Bought (R&D Systems 1544-IR); also called rh-INSR; soluble insulin receptor
The experiment in a line: ELISA on coated rh-INSR. On the procedure:
ELISA assays were performed to determine specific binding of the Fab fragment antibodies to soluble IGF-1R over the insulin receptor. […] Color development was stopped by addition of 4NH₂SO₄ and optical density is measured at 450 nm using a Molecular Devices plate reader and binding curves are generated.
For orientation: An ELISA detects its analyte on a solid surface through an enzyme-linked reagent.

Assay [2] concerns the target T2, human IGF-1R expressed on cells (human, UniProt P08069 31-1367).
T2 construct: On MCF-7 tumor cells or on 3T3/CHO transfectants; precursor is processed into alpha and beta subunits; Signal peptide 1-30 left out as stated; also called wild type IGF-1R; IGF-1R 3T3
As to the kind of experiment: flow cytometry, MCF-7 cells. In general terms: A flow cytometer gives signals particle by particle.

Assay [3] has as its target T3, human IGF-1R(1-903)-Fc (human, UniProt P08069 31-933).
T3 construct: Made by Biogen Idec; Multimerises through IGF-1R and Fc; also called hIGF-1R-Fc; IGF-1R-Fc; not shown: C-terminal human IgG1-Fc tag
As to the kind of experiment: SPR, Fab over captured hIGF-1R-Fc. On the procedure: (§1) Experiments were performed on a Biacore 3000 set to 25° C. using HBS-EP (Biacore, Cat. No. BR-1001-88) as the running buffer. An anti-human IgG-Fc antibody (2C11 from Biogenesis, Cat. No. 5218-9850) was immobilized to saturation on a Biacore CM5 chip (Cat. No. BR-1000-14) surface by injection at 500 nM in HBS-EP buffer. mIGF-1R-Fc or hIGF-1R-Fc was captured on the chip surface by injecting 40 μL of 20 nM receptor at 3 μL/min. […] Dissociation of Fab was measured for ˜27 minutes. Fab was serially diluted from 25 to 0.4 nM to obtain concentration dependent kinetic binding curves. Regeneration of the surface chip between each injection series was performed using 3×10 μL injections of 100 mM glycine pH 2.0 at 60 μL/min. Each curve was double referenced using (1) data obtained from a CM5 chip surface devoid of the anti-IgG antibody 2C11 and (2) data from a primary injection of receptor followed by a secondary injection of HBS-EP buffer.
Background: Surface plasmon resonance follows binding to a sensor surface in real time, without labels.

Assay [4] deals with T4, human IGF-1R(1-902)-His10 (human, UniProt P08069 31-932).
T4 construct: Cy5-labelled in tr-FRET; also called hIGF-1R-His10; IGF-1R-His
As to the kind of experiment: SPR, Fab over captured IGF-1R-10His. The protocol:
(§2) All surface plasmon resonance (SPR) experiments were performed on a Biacore 3000 set to 25° C. using HBS-EP (Biacore, Cat. No. BR-1001-88) as the running buffer. A biotin-labeled anti-HisTag antibody (biotin-PENTA-His, Qiagen Cat. No. 34440) was immobilized to saturation on a Biacore SA chip (Cat. No. BR-1000-32) surface by injection at 500 nM in HBS-EP buffer. […] Subsequent to IGF-1R injections, flow rates were increased to 20 μL/min. A second, 130 μL injection of anti-IGF-1R antibody or Fab was performed to investigate interactions with the receptor. Each antibody and Fab was serially diluted from 64 nM to 0.5 nM to obtain concentration dependent kinetic binding curves. Each injection series was regenerated using 3×10 μL injections of 10 mM Acetate, pH 4.0, at 20 μL/min. Each curve was double referenced using (1) data obtained from a streptavidin surface devoid of IGF-1R and (2) data from a primary injection of IGF-1R followed by a secondary injection of HBS-EP buffer. The concentration series for each antibody and Fab was fit to the 1:1 binding model provided within the BiaEvaluation software of the manufacturer.
(§3) To obtain discrete affinities, Fab fragments of each antibody were generated using papain digestion as described above.

In assay [5] the target is T4, human IGF-1R(1-902)-His10. The experiment in a line: SPR, Fab over IGF-1R-10His captured by anti-His. On the procedure: as §2, §3
For assay [6], the target named is T3, human IGF-1R(1-903)-Fc. As to the kind of experiment: SPR, Fab over hIGF-1R-Fc captured by anti-Fc, 1:1 model, apparent affinity. On the procedure:
as §1

In assay [7] the target is T5, hIGF-1R-Fc mutant SD015 (H464E) (human, UniProt P08069 31-933).
T5 construct: not shown: C-terminal human IgG1-Fc tag
As to the kind of experiment: SPR (Biacore): M13-C06 injected over SD015 captured on an immobilised M13-C06 surface. The protocol:
After, completion of the receptor-Fc loading step, flow rates were elevated to 5 μl/min. […] At the end of each sensorgram, the flow rate was elevated to 30 μl/min and the chip surface was regenerated by 2×10 μL injections of 0.1 M glycine, pH 2.

For assay [8], the target named is T6, IGF-1R (soluble, construct not stated) (human, UniProt P08069 31-932, limits assumed).
T6 construct: whole entry named; also called Solube IGF-1R Protein; soluble recombinant human IGF-1R
The experiment in a line: Fab affinity for IGF-1R, method not given; Fab, not IgG; method and IGF-1R construct not stated.

B1: M13-C06 Fab (Fab, V domains shown)
VH: EVQLLESGGGLVQPGGSLRLSCAASGFTFSIYRMQWVRQAPGKGLEWVSGISPSGGTTWYADSVKGRFTISRDNSKNTLYLQMNSLRAEDTAVYYCARWSGGSGYAFDIWGQGTMVTVSS
VL: DIQMTQSPLSLSASVGDRVTITCQASRDIRNYLNWYQQKPGKAPKLLIYDASSLQTGVPSRFGGSGSGTDFSFTIGSLQPEDIATYYCQQFDSLPHTFGQGTKLEIK
notes: Human Fab from a phage library, kappa light chain
B1: the binding result in assay [1] was “no binding (tested: 2 µM-0.2 nM)”; in assay [7] it was “no binding (tested: 10 nM)”. Besides, in assay [2], the midpoint of the response, the EC50, lay at 8.8 nM. Also, the values for the koff in assay [3] and in assay [4] were 0.000833 s⁻¹ and 0.0012 s⁻¹, respectively. In addition, the results for the kon in assay [3] and in assay [4] were 852000 M⁻¹ s⁻¹ and 880000 M⁻¹ s⁻¹, respectively. The Kd was 1.3 nM in assay [5], 0.978 nM in assay [6] and 1.3 nM in assay [8].
